Test results reported in patent US20230038638A1, “COMPLEMENT FACTOR I-RELATED COMPOSITIONS AND METHODS” (published 2023).

What was measured:
human C4b (human) = molecular target: T1, human C4b (human) (UniProt P0C0L4)
T1 sequence: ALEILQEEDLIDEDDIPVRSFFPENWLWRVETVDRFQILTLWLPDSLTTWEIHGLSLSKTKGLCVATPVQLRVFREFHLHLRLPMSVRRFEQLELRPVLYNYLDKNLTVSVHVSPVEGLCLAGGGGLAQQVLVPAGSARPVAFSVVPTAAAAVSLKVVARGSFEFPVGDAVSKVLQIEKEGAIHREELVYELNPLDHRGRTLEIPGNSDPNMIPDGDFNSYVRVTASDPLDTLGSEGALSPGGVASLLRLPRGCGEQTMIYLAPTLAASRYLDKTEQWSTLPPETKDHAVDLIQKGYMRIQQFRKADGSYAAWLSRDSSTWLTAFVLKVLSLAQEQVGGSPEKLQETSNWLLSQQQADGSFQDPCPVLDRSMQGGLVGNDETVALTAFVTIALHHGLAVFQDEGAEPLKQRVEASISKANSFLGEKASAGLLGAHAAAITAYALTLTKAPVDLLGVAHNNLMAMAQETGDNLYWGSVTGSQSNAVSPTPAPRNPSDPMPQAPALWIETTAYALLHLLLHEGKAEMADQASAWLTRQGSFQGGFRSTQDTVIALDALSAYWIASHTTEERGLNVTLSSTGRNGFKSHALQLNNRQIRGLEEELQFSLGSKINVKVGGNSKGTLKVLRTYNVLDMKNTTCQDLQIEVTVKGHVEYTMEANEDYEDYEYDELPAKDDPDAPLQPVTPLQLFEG

[1] = molecular target: soluble human C3b (human) (UniProt P01024)

C4b Screen Ref Fold (fold of CFI-HSA wild type) (human C4b (human)) | iC3b Screen Ref Fold (fold of CFI-HSA wild type) [1] | C4b Screen Ref Fold (fold of reference) (human C4b (human)) | iC3b Screen Ref Fold (fold of reference) [1] | Substance
2.87 | 1.15 | – | – | CFI-HSA D425Y (enzyme)
0.07 | 0.54 | – | – | CFI-HSA variant L386G (enzyme)
1.54 | 1.66 | – | – | CFI-HSA D425N (enzyme)
– | – | 0.14 | 0 | CFI-HSA variant K340G; I345G (enzyme)
0.18 | -0.04 | – | – | CFI-HSA D506P (enzyme)
– | – | -0.03 | 0 | CFI-HSA variant G469L; R456N; K458A; E461G (enzyme)
3.46 | 0.7 | – | – | CFI-HSA variant N531M; Y403F; K504Y; E457G; E461Q (enzyme)
6.5 | 0.88 | – | – | CFI-HSA E457G; N531G (enzyme)
1.47 | 1.15 | – | – | CFI-HSA variant G406A; Y403F (enzyme)
1.83 | 1.87 | – | – | CFI-HSA D425Q (enzyme)
– | – | 0.12 | -0.02 | CFI-HSA variant W381G; P384G; V390G (enzyme)
– | – | 1.81 | 0.67 | CFI-HSA variant T346H (enzyme)
0.35 | -0.03 | – | – | CFI-HSA D506F (enzyme)
0.12 | 2.05 | – | – | CFI-HSA variant D425K; K504R (enzyme)
1.46 | 0.94 | – | – | CFI-HSA D425L (enzyme)
2.29 | 0.72 | – | – | CFI-HSA K534D (enzyme)
6.44 | 1.29 | – | – | CFI-HSA Y408L; N531G (enzyme)
0.25 | 0 | – | – | CFI-HSA variant R462G (enzyme)
0.09 | 0.01 | – | – | CFI-HSA F464I (enzyme)
0.21 | 0.78 | – | – | CFI-HSA variant K419G (enzyme)
– | – | -0.02 | 0.01 | CFI-HSA variant G469L; R456N; K458A; E461G; F537K (enzyme)
0.18 | -0.02 | – | – | CFI-HSA variant K504R; S507A (enzyme)
0.15 | 0.02 | – | – | CFI-HSA variant D425K; Y408M; E530F; F537K; K504R (enzyme)
0.15 | 1.28 | – | – | CFI-HSA variant N476Q; N518Q (enzyme)
0.39 | 0.04 | – | – | CFI-HSA D506T (enzyme)
6.67 | 1.55 | – | – | CFI-HSA N531G; E457G; E461Q; R462K (enzyme)
0.07 | 1.26 | – | – | CFI-HSA variant Y408M; F537K; K504R; P558S (enzyme)
0.05 | 0.01 | – | – | CFI-HSA variant Y408M; E530F; F537K; K504R (enzyme)
2.43 | 0.74 | – | – | CFI-HSA Y408L; E461Q; R462K; F464Y (enzyme)
0.08 | 0.09 | – | – | CFI-HSA variant V463G (enzyme)
